What follows are sequences tested on Escherichia coli TOP10 (assay: shrunken log2 fold change of peptide-encoding DNA abundance (4.5 h post-induction vs induction); higher = less antimicrobial activity (less host growth inhibition)). Details: time post-induction: 4.5 h; library: site-saturation at positions 5, 18, 19, 20.
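Note: peptides expressed intracellularly from a pBAD plasmid library in pooled LB shake-flask culture, induced with 0.3% L-arabinose, DNA abundance read by NGS, three biological replicates, DESeq2 with apeglm shrinkage.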

Sequence | shrunken log2 fold change
RRIRNRPPRLPRPRPRPIDKPRP | -0.0756
RRIRTRPPRLPRPRPRPVKKPRP | 0.0316
RRIRWRPPRLPRPRPRPCTHPRP | 0.0298
RRIRRRPPRLPRPRPRPWQQPRP | -0.0108
RRIRCRPPRLPRPRPRPWTMPRP | 0.0153
RRIRTRPPRLPRPRPRPMILPRP | -0.0648
RRIRYRPPRLPRPRPRPFEYPRP | -0.0492
RRIRIRPPRLPRPRPRPCNAPRP | -0.0751
RRIRVRPPRLPRPRPRPMLRPRP | -0.102
RRIRSRPPRLPRPRPRPTCYPRP | -0.0144
RRIRFRPPRLPRPRPRPMYCPRP | -0.541
RRIRWRPPRLPRPRPRPRPAPRP | 0.865
RRIRERPPRLPRPRPRPIADPRP | 0.13
RRIRGRPPRLPRPRPRPVWIPRP | 0.276
RRIRRRPPRLPRPRPRPQKPPRP | -0.138
RRIRARPPRLPRPRPRPPVVPRP | 0.378
RRIRARPPRLPRPRPRPRKRPRP | 0.778
RRIRPRPPRLPRPRPRPWNAPRP | -0.118
RRIRERPPRLPRPRPRPFWCPRP | -0.014
RRIRFRPPRLPRPRPRPPTTPRP | 0.276
RRIRPRPPRLPRPRPRPNGSPRP | 0.0884
RRIRFRPPRLPRPRPRPEYFPRP | 0.186
RRIRIRPPRLPRPRPRPKGSPRP | 0.00745
RRIRHRPPRLPRPRPRPFGRPRP | -0.0135
RRIRARPPRLPRPRPRPICGPRP | 0.248

Sequence | shrunken log2 fold change
RRIRPRPPRLPRPRPRPCPAPRP | -0.0349
RRIRKRPPRLPRPRPRPEVSPRP | 0.219
RRIRNRPPRLPRPRPRPAPIPRP | 0.169
RRIRMRPPRLPRPRPRPRIIPRP | -0.138
RRIRWRPPRLPRPRPRPKFFPRP | 0.00459
RRIRDRPPRLPRPRPRPRIVPRP | -0.385
RRIRSRPPRLPRPRPRPFHCPRP | -0.0582
RRIRYRPPRLPRPRPRPQAFPRP | -0.142
RRIRTRPPRLPRPRPRPRAFPRP | 0.184
RRIRWRPPRLPRPRPRPNIYPRP | -0.307
RRIRTRPPRLPRPRPRPVIRPRP | -0.176
RRIRQRPPRLPRPRPRPGHYPRP | -0.00181
RRIRSRPPRLPRPRPRPPKNPRP | 0.223
RRIRQRPPRLPRPRPRPGIRPRP | 0.346
RRIRLRPPRLPRPRPRPAEIPRP | -0.219
RRIRERPPRLPRPRPRPCHVPRP | -0.0775
RRIRFRPPRLPRPRPRPAHVPRP | -0.0462
RRIRARPPRLPRPRPRPAKRPRP | 0.47
RRIRRRPPRLPRPRPRPEEIPRP | -0.0243
RRIRKRPPRLPRPRPRPMVTPRP | 0.231
RRIRKRPPRLPRPRPRPQKHPRP | 0.224
RRIRVRPPRLPRPRPRPHATPRP | 0.204
RRIRARPPRLPRPRPRPRYPPRP | 0.0172
RRIRTRPPRLPRPRPRPWQVPRP | -0.0764
RRIRARPPRLPRPRPRPGSYPRP | 0.14

Sequence | shrunken log2 fold change
RRIRIRPPRLPRPRPRPWFSPRP | -0.201
RRIRSRPPRLPRPRPRPVNNPRP | -0.363
RRIRTRPPRLPRPRPRPDAMPRP | 0.248
RRIRARPPRLPRPRPRPWGCPRP | 0.211
RRIRIRPPRLPRPRPRPKQVPRP | -0.118
RRIRSRPPRLPRPRPRPMWNPRP | -0.204
RRIRYRPPRLPRPRPRPEIEPRP | -0.0892
RRIRGRPPRLPRPRPRPSVKPRP | 0.293
RRIRFRPPRLPRPRPRPFIAPRP | -0.489
RRIRNRPPRLPRPRPRPRTFPRP | -0.078
RRIRNRPPRLPRPRPRPVKSPRP | 0.00699
RRIRGRPPRLPRPRPRPNNPPRP | -0.171
RRIRFRPPRLPRPRPRPHCDPRP | -0.252
RRIRDRPPRLPRPRPRPQGMPRP | -0.00277
RRIRMRPPRLPRPRPRPVEKPRP | 1.01
RRIRHRPPRLPRPRPRPYILPRP | -0.576
RRIRNRPPRLPRPRPRPKCWPRP | 0.173
RRIRARPPRLPRPRPRPLCAPRP | 0.704
RRIRHRPPRLPRPRPRPCSKPRP | -0.0875
RRIRRRPPRLPRPRPRPYPVPRP | 0.0514
RRIRPRPPRLPRPRPRPPPSPRP | 1.12
RRIRERPPRLPRPRPRPAFFPRP | 0.00883
RRIRWRPPRLPRPRPRPFRWPRP | 0.0815
RRIRIRPPRLPRPRPRPHVVPRP | -0.0217
RRIRMRPPRLPRPRPRPLDYPRP | -0.0259

Sequence | shrunken log2 fold change
RRIRHRPPRLPRPRPRPMSGPRP | -0.0285
RRIRTRPPRLPRPRPRPAREPRP | 0.44
RRIRLRPPRLPRPRPRPMYEPRP | 0.129
RRIRTRPPRLPRPRPRPCNAPRP | -0.228
RRIRDRPPRLPRPRPRPQPHPRP | 0.228
RRIRIRPPRLPRPRPRPYAYPRP | -0.0284
RRIRERPPRLPRPRPRPYSGPRP | -0.218
RRIRPRPPRLPRPRPRPDIQPRP | -0.222
RRIRERPPRLPRPRPRPPQYPRP | -0.517
RRIRIRPPRLPRPRPRPGSDPRP | -0.209
RRIRFRPPRLPRPRPRPHWLPRP | -0.066
RRIRTRPPRLPRPRPRPMMPPRP | -0.0027
RRIRWRPPRLPRPRPRPDRFPRP | 0.0986
RRIRMRPPRLPRPRPRPNPVPRP | -0.0385
RRIRCRPPRLPRPRPRPAEHPRP | 0.0782
RRIRGRPPRLPRPRPRPKEPPRP | 0.875
RRIRKRPPRLPRPRPRPLGDPRP | 0.227
RRIRQRPPRLPRPRPRPCAIPRP | -0.0067
RRIRSRPPRLPRPRPRPHHFPRP | 0.0761
RRIRLRPPRLPRPRPRPRHEPRP | 0.055
RRIRGRPPRLPRPRPRPGTLPRP | 0.351
RRIRARPPRLPRPRPRPSKDPRP | -0.111
RRIRSRPPRLPRPRPRPEGTPRP | 0.123
RRIRNRPPRLPRPRPRPLQPPRP | -0.187
RRIRNRPPRLPRPRPRPYQCPRP | -0.00804

Sequence | shrunken log2 fold change
RRIRGRPPRLPRPRPRPGYLPRP | 0.0499
RRIRDRPPRLPRPRPRPRGQPRP | 0.141
RRIRARPPRLPRPRPRPKWKPRP | -0.291
RRIRGRPPRLPRPRPRPKPAPRP | 1.42
RRIRRRPPRLPRPRPRPTKQPRP | -0.0752
RRIRRRPPRLPRPRPRPSMGPRP | -0.0183
RRIRMRPPRLPRPRPRPDMLPRP | 0.0647
RRIRERPPRLPRPRPRPDALPRP | -0.0722
RRIRTRPPRLPRPRPRPVNWPRP | 0.0495
RRIRDRPPRLPRPRPRPMLLPRP | 0.307
RRIRARPPRLPRPRPRPKGVPRP | 0.15
RRIRCRPPRLPRPRPRPWCLPRP | -0.339
RRIRARPPRLPRPRPRPIRGPRP | 0.0372
RRIRRRPPRLPRPRPRPLWCPRP | 0.186
RRIRIRPPRLPRPRPRPVMAPRP | -0.526
RRIRSRPPRLPRPRPRPSKVPRP | -0.575
RRIRPRPPRLPRPRPRPMEAPRP | 0.177
RRIRTRPPRLPRPRPRPAHDPRP | 0.268
RRIRCRPPRLPRPRPRPVDGPRP | 0.0228
RRIRWRPPRLPRPRPRPMSTPRP | -0.111
RRIRTRPPRLPRPRPRPRSPPRP | 0.0437
RRIRERPPRLPRPRPRPIHRPRP | 0.0155
RRIRARPPRLPRPRPRPYEFPRP | 0.182
RRIRSRPPRLPRPRPRPIDDPRP | -0.00277
RRIRHRPPRLPRPRPRPCWMPRP | -0.032

Sequence | shrunken log2 fold change
RRIRMRPPRLPRPRPRPEHRPRP | 0.0887
RRIRERPPRLPRPRPRPCYYPRP | -0.312
RRIRRRPPRLPRPRPRPNPKPRP | 0.172
RRIRFRPPRLPRPRPRPHETPRP | -0.347
RRIRDRPPRLPRPRPRPSLDPRP | -0.0616
RRIRERPPRLPRPRPRPQGEPRP | -0.0686
RRIRVRPPRLPRPRPRPSTTPRP | -0.0817
RRIRRRPPRLPRPRPRPYSAPRP | -0.137
RRIRFRPPRLPRPRPRPPGMPRP | 0.461
RRIRKRPPRLPRPRPRPVVRPRP | -0.0886
RRIRDRPPRLPRPRPRPDVGPRP | 0.232
RRIRIRPPRLPRPRPRPKMQPRP | -0.293
RRIRARPPRLPRPRPRPRTIPRP | 0.148
RRIRRRPPRLPRPRPRPRYTPRP | -0.186
RRIRVRPPRLPRPRPRPIFMPRP | -0.363
RRIRYRPPRLPRPRPRPSESPRP | -0.0299
RRIRNRPPRLPRPRPRPVLFPRP | -0.326
RRIRCRPPRLPRPRPRPLHQPRP | -0.168
RRIRARPPRLPRPRPRPLLEPRP | 0.834
RRIRYRPPRLPRPRPRPKRAPRP | 0.28
RRIRARPPRLPRPRPRPHWLPRP | 0.339
RRIRDRPPRLPRPRPRPFMIPRP | 0.0898
RRIRRRPPRLPRPRPRPWGRPRP | 0.101
RRIRPRPPRLPRPRPRPTVQPRP | 0.182
RRIRSRPPRLPRPRPRPPGNPRP | -0.0179

Source: the supplement of paper PMC9112550, “Optimization of the antimicrobial peptide Bac7 by deep mutational scanning” (BMC Biology, 2022)
